The values that follow come from PMC4022642.

In the experiment the target is GST fusion of human TRESK cytoplasmic loop (amino acids 174-280) (human) (UniProt Q7Z418). In words: pull-down; GST-TRESK 174-280 on glutathione agarose; mouse brain cytosol; four pairs of independent assays; anti-tubulin β3 Western blot with densitometry (ImageJ). In general terms: Immunoblotting shows a protein as a band on a membrane.
UniProt Q7Z418, sequence (Q7Z418 other isoform, or with tags, fused parts or gaps): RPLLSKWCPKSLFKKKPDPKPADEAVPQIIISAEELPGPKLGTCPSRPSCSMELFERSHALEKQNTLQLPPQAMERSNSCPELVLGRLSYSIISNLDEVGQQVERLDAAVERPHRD

“tubulin (mouse brain cytosol) (from UniProt P05213 1-451; Q9ERD7 1-450) (complex)” displayed a densitometry counts of the anti-tubulin β3 immunoblot of 20500 counts.
